By Kd is commonly meant the free concentration of one partner at which half of the binding sites on the other are occupied at equilibrium, for simple one-to-one binding. High values mean weaker binding, low ones tighter binding.

For nine molecules, binding result and Kd results are on record in PMC8596624.

The target of data set [1] is WH-S1, spike S1 subunit, wild-type (SARS-CoV-2 (Wuhan), UniProt P0DTC2 14-685). In words: dot blot.
For data set [2], the target named is T1, WHTS, trimeric spike protein, wild-type (Wuhan) (SARS-CoV-2 (Wuhan), UniProt P0DTC2 14-1213). In words: electrochemical impedance.
The target of data set [3] is T1, WHTS, trimeric spike protein, wild-type …. In words: electrochemical impedance. This is another data set of the same source.
Data set [4] shares this target. In words: electrochemical impedance. The source holds these as a separate data set.
The target is the same in data set [5]. In words: dot blot.

B1: MSA5 (structured_DNA)
DNA: TTACGTCAAGGTGTCACTCCACGGGTTTGGCGTCGGGCCTGGCGGGGGGATAGTGCGGTGGAAGCATCTCTTTGGCGTG
B1: the binding result in data set [1] is given as “binds”.
As for ACGGGTTTGGCGTCGGGCCTGGCGGGGGGATAGTGCGGTTTTT (structured_DNA, 3' thiol (3ThioMC3-D)) [MSA5T-SH], the binding result in data set [2] is recorded as “binds”.

B2: DSA1N5-SH (structured_DNA)
DNA: TTCCGGTTAATTTATGCTCTACCCGTCCACCTACCGGAATTTTTTTTTTTTTTTTTTTTTTTTTTTTTTACGGGTTTGGCGTCGGGCCTGGCGGGGGGATAGTGCGGTTTTT
modifications: 3' thiol (3ThioMC3-D)
B2: in data set [3], the binding result was “binds”.
Consider TTCCGGTTAATTTATGCTCTACCCGTCCACCTACCGGAATTTT (structured_DNA, 3' thiol (3ThioMC3-D)) [MSA1T-SH], for which the binding result in data set [4] was “binds”.
For GCGTTCGGAGTGGGTCGTGCGGCGCGGGACGAGTGGTGT (ssDNA) [M5C], in data set [5], the binding result is “no binding”.

B3: MSA1 (structured_DNA)
DNA: TTACGTCAAGGTGTCACTCCCACTTTCCGGTTAATTTATGCTCTACCCGTCCACCTACCGGAAGCATCTCTTTGGCGTG
For the molecule B3, the binding result in data set [1] is “binds”.
Consider TTCCGGTTAATTTATGCTCTACCCGTCCACCTACCGGAA (structured_DNA) [MSA1T], for which the Kd in data set [5] was found to be 0.0119 ± 0.0018 µM.

B4: DMC (ssDNA)
DNA: CTATATCCCTTTAAGCCTGTGGGTCCACGAATCTACCTCTTTTTTTTTTTTTTTTTTTTTTTTTTTTTTGCGTTCGGAGTGGGTCGTGCGGCGCGGGACGAGTGGTGT
B4: in data set [5], the binding result was “no binding”.
As to CTATATCCCTTTAAGCCTGTGGGTCCACGAATCTACCTC (ssDNA) [M1C], in data set [5], the binding result is given as “no binding”.
